Source: patent US20160137740A1 (AstraZeneca / MedImmune, published 2016)

Legend:
Human OX40 [1] = molecular target: T1, Human OX40 (human, UniProt P43489 29-277); assay: cell-based or functional assay
T1 sequence: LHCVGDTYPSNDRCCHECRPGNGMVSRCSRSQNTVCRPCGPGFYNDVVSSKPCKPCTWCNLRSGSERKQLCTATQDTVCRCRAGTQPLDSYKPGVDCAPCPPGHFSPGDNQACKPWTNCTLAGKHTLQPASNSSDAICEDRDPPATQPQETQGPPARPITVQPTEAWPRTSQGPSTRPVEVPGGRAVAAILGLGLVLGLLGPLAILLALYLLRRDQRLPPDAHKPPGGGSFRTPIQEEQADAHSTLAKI

Human OX40 [2] = molecular target: T1, Human OX40; assay: cell-based or functional assay; remark: listed apart in the source
Cynomolgus monkey OX40 = molecular target: T2, Cynomolgus monkey OX40 (cynomolgus monkey); assay: flow cytometry, equilibrium binding to activated primary cynomolgus CD4+ T cells; mean of 2 experiments (StdErr)
T2 construct: also called cyno OX40
Method: Cyno CD4⁺ T cell isolation was performed with a Miltenyi non-human primate kit according to manufacturer's instructions, then CD4⁺ T cells counted on a ViCell counter and suspended at 1×10⁶ per mL in complete medium as described above.
Cyno CD4⁺ T cells (1×10⁶ per mL in complete medium) were incubated for 48 hours in a T75 cell culture flask with 2 μg/mL PHA-L and 20 IU/mL IL-2, to activate T cells and induce OX40 expression. Activated CD4⁺ T cells were removed from the flask and 100,000 cells were transferred to each well of a non-tissue culture treated 96-well round-bottom plate for binding assays and washed with 200 μL FACS buffer. Binding was performed with 10 μg/mL OX40mAb24 or 9B12 serially diluted 4-fold in FACS buffer for an 11-point data curve, or both R347 human IgG1 or mouse IgG1 clone MOPC-21 (negative controls) serially diluted 6-fold for a 3 point data curve. OX40mAb24, 9B12 or control protein was added to CD4⁺ T cells and incubated. […] Following secondary antibody incubation, cells were processed for flow cytometry as described in Section 2.3.

Human OX40 [3] = molecular target: T1, Human OX40; assay: cell-based or functional assay; remark: listed apart in the source
Human OX40 [4] = molecular target: T1, Human OX40; assay: flow cytometry on activated primary human CD4+ T cells; 50% receptor occupancy calculated from Kd
Method: (§1) OX40mAb24 (10 μg/mL) or 9B12 (10 μg/mL) was diluted over a 17 point 2-fold dilution series. OX40mAb24 was added to 100,000 cells (activated primary CD4⁺ T cells or human OX40-overexpressing Jurkat NFkB-luciferase clone 64 cells) per well and incubated for one hour at 4° C. For background binding subtraction, cells were incubated in the presence of secondary antibody alone. […] Following secondary antibody incubation, cells were washed and suspended in 100 μL FACS buffer for flow cytometry analysis on a BD LSRII flow cytometer as described below.

Human OX40 [5] = molecular target: T1, Human OX40; assay: cell-based or functional assay; remark: listed apart in the source
Human OX40 [6] = molecular target: T1, Human OX40; assay: flow cytometry, equilibrium binding to human OX40-overexpressing Jurkat NFkB-luciferase clone 64 cells; mean of 3 experiments (StdErr)
Method: (§2) Human OX40-overexpressing Jurkat NFκB-luciferase clone 64 cells were cultured in complete RPMI+10% FBS prior to binding experiments, without the need for activation.
as §1

[7] = molecular target: T3, KO_CRD3 (human OX40 aa 108 to 146 replaced with the mouse counterparts) (human; mouse, UniProt P43489 29-277); assay: flow cytometry, transfected 293F cells, column KO_CRD3
T3 construct: Chimeric variant with a transmembrane domain, transient on 293F cells
T3 chain: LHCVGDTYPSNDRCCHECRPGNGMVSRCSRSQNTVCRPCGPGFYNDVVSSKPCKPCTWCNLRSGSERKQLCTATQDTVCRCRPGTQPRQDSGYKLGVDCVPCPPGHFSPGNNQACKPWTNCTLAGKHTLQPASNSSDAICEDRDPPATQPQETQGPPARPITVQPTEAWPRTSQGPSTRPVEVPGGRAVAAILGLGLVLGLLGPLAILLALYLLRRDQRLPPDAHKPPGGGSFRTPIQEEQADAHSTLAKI

Human OX40 [8] = molecular target: T1, Human OX40; assay: flow cytometry, equilibrium binding to activated primary human CD4+ T cells; apparent Kd, mean of 6 donors (StdErr)
Method: as §1

Human OX40 [9] = molecular target: T1, Human OX40; assay: cell-based or functional assay; remark: listed apart in the source
Human OX40 [10] = molecular target: T1, Human OX40; assay: cell-based or functional assay; remark: listed apart in the source
Rhesus monkey OX40 = molecular target: T4, Rhesus monkey OX40 (rhesus monkey); assay: flow cytometry, equilibrium binding to activated primary rhesus CD4+ T cells; mean of 2 experiments (StdErr)
T4 construct: also called rhesus macaque OX40

[11] = molecular target: cyno/rhesus OX40 expressed on Jurkat NFκB-luciferase reporter clone B2 (cynomolgus/rhesus monkey); assay: cell-based or functional assay
Human OX40 [12] = molecular target: T1, Human OX40; assay: cell-based or functional assay; remark: listed apart in the source
Human OX40 [13] = molecular target: T1, Human OX40; assay: flow cytometry on human OX40-overexpressing Jurkat clone 64 cells; 50% receptor occupancy calculated from Kd
Method: as §2, §1

B1: 9B12 (antibody, mouse IgG1, V domains shown)
VH: EVQLQESGPSLVKPSQTLSLTCSVTGDSFTSGYWNWIRKFPGNRLEYMGYISYNGITYHNPSLKSRISITRDTSKNHYYLQLNSVTTEDTATYFCARYRYDYDGGHAMDYWGQGTLVTVSS
VL: DIQMTQTTSSLSASLGDRVTISCRASQDISNYLNWYQQKPDGTVKLLIYYTSKLHSGVPSRFSGSGSRTDYSLTITDLDQEDIATYFCQQGSALPWTFGQGTKVEIKR
notes: mouse IgG1 kappa; also called murine mAb 9B12; mouse anti-human OX40 IgG1κ monoclonal antibody
EC50, CD4+ T cell proliferation, donor 367 (Human OX40 [1]): 0.156 nM | EC50, CD4+ T cell proliferation, donor 645 (Human OX40 [1]): 0.169 nM | EC50, CD4+ T cell proliferation, donor 651 (Human OX40 [1]): 0.309 nM | EC50, CD4+ T cell proliferation, donor 661 (Human OX40 [1]): 0.237 nM | EC50, IL5 release, donor 651 (Human OX40 [2]): 1.09 nM | Kd (Cynomolgus monkey OX40): 1.09 nM | EC50, IL10 release, donor 367 (Human OX40 [3]): 0.198 nM | EC50, IL10 release, donor 645 (Human OX40 [3]): 1.22 nM | EC50, IL10 release, donor 651 (Human OX40 [3]): 0.796 nM | EC50 (Human OX40 [4]): 0.669 nM | EC50, NFκB-luciferase 2-cell assay, exp 1, Raji (Human OX40 [5]): 9.28 nM | EC50, NFκB-luciferase 2-cell assay, exp 2, CD32A-expressing HEK (Human OX40 [5]): 0.338 nM | EC50, NFκB-luciferase 2-cell assay, exp 3, CD32A-expressing HEK (Human OX40 [5]): 0.225 nM | EC50, NFκB-luciferase 2-cell assay, exp 4, Raji (Human OX40 [5]): 5.04 nM | EC50, NFκB-luciferase 2-cell assay, exp 5, CD32B-expressing HEK (Human OX40 [5]): 0.726 nM | EC50, NFκB-luciferase 2-cell assay, exp 6, Raji (Human OX40 [5]): 2.7 nM | EC50, NFκB-luciferase 2-cell assay, exp 7, CD32B-expressing HEK (Human OX40 [5]): 1.77 nM | EC50, NFκB-luciferase 2-cell assay, exp 8, CD32B-expressing HEK (Human OX40 [5]): 1.34 nM | EC50, NFκB-luciferase 2-cell assay, exp 9, Raji (Human OX40 [5]): 3.07 nM | EC50, NFκB-luciferase 2-cell assay, exp 10, Raji (Human OX40 [5]): 3.33 nM | EC50, NFκB-luciferase 2-cell assay, exp 11, CD32B-expressing HEK (Human OX40 [5]): 2.36 nM | EC50, NFκB-luciferase 2-cell assay, exp 12, CD45+ cells, NSCLC (Human OX40 [5]): 0.223 nM | EC50, NFκB-luciferase 2-cell assay, exp 15, CD45+ cells, RCC (Human OX40 [5]): 2.42 nM | Kd (Human OX40 [6]): 0.726 nM | binding result [7]: no binding | Kd (Human OX40 [8]): 0.669 nM | EC50, IL13 release, donor 645 (Human OX40 [9]): 5.45 nM | EC50, IL13 release, donor 651 (Human OX40 [9]): 1.77 nM | EC50, IL13 release, donor 661 (Human OX40 [9]): 0.238 nM | EC50, TNFα release, donor 645 (Human OX40 [10]): 0.67 nM | EC50, TNFα release, donor 651 (Human OX40 [10]): 0.764 nM | Kd (Rhesus monkey OX40): 0.713 nM | EC50, NFκB-luciferase 2-cell assay, rhesus RBC-lysed whole blood + cyno/rhesus OX40 Jurkat clone B2 [11]: 6.05 nM | mean EC50, NFκB-luciferase 2-cell assay, human Raji B cells + human OX40 Jurkat clone 64 (Human OX40 [12]): 4.68 nM | EC50 (Human OX40 [13]): 0.726 nM
